In test [1] the target is TSHR260-AP (fusion protein consisting of a fragment of human TSHR, amino acids 22-260, with alkaline phosphatase) (human). Kind of test: bridging ELISA: full length TSHR on wells, TSHR260-AP in liquid phase; IgG 1 µg/mL in HBD serum. A general note: In an ELISA, binding on a coated surface is turned into a signal by an enzyme label.
Test [2] shares this target. Kind of test: bridging ELISA: full length TSHR on wells, TSHR260-AP in liquid phase; IgG 10 µg/mL in HBD serum.
Test [3] has the same target. The test can be described thus: bridging ELISA: full length TSHR on wells, TSHR260-AP in liquid phase; IgG 0.1 µg/mL in HBD serum.
For test [4] the target is unchanged. Kind of test: bridging ELISA: full length TSHR on wells, TSHR260-AP in liquid phase; IgG 0.5 µg/mL in HBD serum.
For test [5] the target is unchanged. The test can be described thus: bridging ELISA: full length TSHR on wells, TSHR260-AP in liquid phase; IgG 0.01 µg/mL in HBD serum.
Test [6] shares this target. Kind of test: bridging ELISA: full length TSHR on wells, TSHR260-AP in liquid phase; IgG 0.05 µg/mL in HBD serum.
Test [7] has the same target. The test can be described thus: bridging ELISA: full length TSHR on wells, TSHR260-AP in liquid phase; IgG 0.005 µg/mL in HBD serum.
In test [8] the target is T1, thyroid stimulating hormone receptor (TSHR), full length human (human, UniProt P16473 22-764).
T1 construct: TSHR coated on plastic tubes; also called TSH receptor
The test can be described thus: 125I-K1-18 Fab competition, TSHR coated tubes; 1 µg/mL in HBD. Here is the method: (§1) Binding inhibition assays were carried out using TSHR coated tubes as described in WO2004/050708A2. […] After aspiration, the tubes were washed and 100 μL of ¹²⁵I-labelled protein (5×10⁴ cpm) added and incubated for 1 hour at room temperature with shaking. The tubes were then aspirated, washed and counted in a gamma counter. Inhibition of labelled protein binding was calculated as 100×[1−(cpm bound in the presence of test material/cpm bound in the presence of control material)].

The target in test [9] is T1, thyroid stimulating hormone receptor …. The test can be described thus: 125I-K1-18 Fab competition, TSHR coated tubes; 3 µg/mL in HBD. On the procedure: as §1
The target is the same in test [10]. Kind of test: 125I-K1-18 Fab competition, TSHR coated tubes; 10 µg/mL in HBD. On the procedure:
as §1

The target is the same in test [11]. The test can be described thus: 125I-K1-18 Fab competition, TSHR coated tubes; 30 µg/mL in HBD. Here is the method:
as §1

Test [12] shares this target. Kind of test: 125I-K1-18 Fab competition, TSHR coated tubes; 0.1 µg/mL in HBD. On the procedure: as §1
Test [13] shares this target. The test can be described thus: 125I-K1-18 Fab competition, TSHR coated tubes; 100 µg/mL in HBD. On the procedure:
as §1

The target is the same in test [14]. The test can be described thus: 125I-K1-18 Fab competition, TSHR coated tubes; 1 µg/mL in assay buffer. Here is the method: as §1
The target is the same in test [15]. The test can be described thus: 125I-K1-18 Fab competition, TSHR coated tubes; 3 µg/mL in assay buffer. Here is the method: as §1
For test [16] the target is unchanged. The test can be described thus: 125I-K1-18 Fab competition, TSHR coated tubes; 10 µg/mL in assay buffer. Here is the method: as §1
Test [17] has the same target. Kind of test: 125I-K1-18 Fab competition, TSHR coated tubes; 30 µg/mL in assay buffer. Here is the method: as §1
Test [18] has the same target. The test can be described thus: 125I-K1-18 Fab competition, TSHR coated tubes; 0.1 µg/mL in assay buffer. Here is the method: as §1
Test [19] has the same target. Kind of test: 125I-K1-18 Fab competition, TSHR coated tubes; 100 µg/mL in assay buffer. On the procedure:
as §1

For another test, the target named is T2, TSHR260 (human, UniProt P16473 22-260).
T2 construct: Expressed in insect cells; coated on tubes or wells by way of a mouse TSHR MAb (14C4 F(ab')2 in the stability ELISA); also called TSHR fragment of amino acids 22-260
The test can be described thus: Scatchard analysis, TSHR260 coated tubes (mean±SD, n=3).

Test [20] has as its target T3, full length human TSHR, detergent-solubilised, coated on tubes or ELISA plate wells (human, UniProt P16473 22-764).
T3 construct: Full length receptor expressed in CHO cells, solubilised with detergent and held on the plastic by a mouse MAb to the C-terminus; The leader 1-21 is stated for the TSHR260 construct of the same receptor; also called TSH receptor; TSHR (full length)
Kind of test: Scatchard analysis, 125I-labelled antibody on full length TSHR coated tubes (mean±SD, n=3).

For test [21], the target named is T3, full length human TSHR, …. Kind of test: Scatchard analysis, full length TSHR coated tubes (mean±SD, n=3).
The target in test [22] is T4, human TSH receptor, full length, detergent-solubilised, coated on tubes or ELISA plate wells (human, UniProt P16473 22-764).
T4 construct: Full length recombinant receptor expressed in CHO cells, solubilised and coated via a C-terminal antibody; also called wild type TSHR; full length TSHR
Kind of test: TSHR binding affinity (summary table; Scatchard analysis, TSHR coated tubes).

On to “9D33 IgG (mouse TSHR blocking MAb) (antibody)”, for which the Mean absorbance at 405 nm (absorbance at 405 nm) in test [1] was found to be 0.329; in test [2], 0.481; in [3], 0.102; in test [4], 0.273; in [5], 0.011; in [6], 0.056. This molecule came in with a Mean absorbance at 405 nm (absorbance at 405 nm) in test [7] of 0.006.

B1: K1-70 IgG (antibody, V domains shown)
VH: EVQLVQSGAEVKKPGQSLKISCKASGYSLTDNWIGWVRQKPGKGLEWMGIIYPGDSDTRYSPSFQGQVTISADKSINTAYLQWSSLKASDTAIYYCVGLDWNYNPLRYWGPGTLVTVSS
VL: QSVLTQPPSVSAAPGQKVTISCSGSSSDIGSNYVSWYQQFPGTAPKLLIYDNNKRPSAIPDRFSGSKSGTSATLGITGLQTGDEADYYCGTWDSRLGIAVFGGGTQLTVLG
notes: Human IgG1 lambda purified from hetero-hybridoma supernatant; also called human monoclonal autoantibody K1-70
For B1, the “Inhibition of binding (%)” value is 94% in [8]; 95.3% in [9]; 95.8% in test [10]; 95.5% in test [11]; 60.1% in test [12]; 95.6% in [13]. Besides, the “Inhibition of binding (%)” value worked out at 94% in test [14]; 94.5% in test [15]; 94.6% in test [16]; 95.1% in test [17]; 73.8% in test [18]; 94.8% in test [19].

B2: K1-70 IgG (antibody, V domains shown)
VH: EVQLVQSGAEVKKPGQSLKISCKASGYSLTDNWIGWVRQKPGKGLEWMGIIYPGDSDTRYSPSFQGQVTISADKSINTAYLQWSSLKASDTAIYYCVGLDWNYNPLRYWGPGTLVTVSS
VL: QSVLTQPPSVSAAPGQKVTISCSGSSSDIGSNYVSWYQQFPGTAPKLLIYDNNKRPSAIPDRFSGSKSGTSATLGITGLQTGDEADYYCGTWDSRLGIAVFGGGTQLTVLG
modifications: N-terminus blocked; deblocked with pyroglutamate aminopeptidase for Edman sequencing
notes: Human IgG1 lambda purified from hetero-hybridoma supernatant; also called human MAb K1-70
On to B2, for which the Ka stood at 3.1e+10 M⁻¹ with TSHR260 and 3.9e+10 M⁻¹ in test [20].

B3: K1-70 Fab (Fab, V domains shown)
VH: EVQLVQSGAEVKKPGQSLKISCKASGYSLTDNWIGWVRQKPGKGLEWMGIIYPGDSDTRYSPSFQGQVTISADKSINTAYLQWSSLKASDTAIYYCVGLDWNYNPLRYWGPGTLVTVSS
VL: QSVLTQPPSVSAAPGQKVTISCSGSSSDIGSNYVSWYQQFPGTAPKLLIYDNNKRPSAIPDRFSGSKSGTSATLGITGLQTGDEADYYCGTWDSRLGIAVFGGGTQLTVLG
modifications: N-terminus blocked; deblocked with pyroglutamate aminopeptidase for Edman sequencing
For B3, the Ka was 9.3e+09 M⁻¹ with TSHR260 and 2.3e+10 M⁻¹ in [21].

B4: K1-18 IgG (antibody, V domains shown)
VH: EVQLVQSGAEVKKPGESLKISCKGSGYSFTNYWIGWVRQMPGKGLEWMGIIYPYDSDTRYSPSFEGQVTISADKSIRTAYLHWSSLKASDTAMYYCVRPRDGSYPYDAFDIWGQGTMVTVSS
VL: EIVLTQSPGTLSLSPGERATLSCRASQSVSNNYLAWYQQKPGQAPRLLIYGASSRATGIPDRFSGSGSGTDFTLTISRLEPEDFAVYYCQHCGSSLRAFGQGTKVEIKR
notes: Human IgG1 kappa purified from hetero-hybridoma supernatant; also called human monoclonal autoantibody K1-18
Regarding B4, the “Inhibition of binding (%)” value worked out at 91.9% in test [8]; 94% in test [9]; 94.5% in [10]; 95.7% in test [11]; 57% in test [12]; 96% in test [13]. The “Inhibition of binding (%)” value worked out at 93.3% in test [14]; 93.7% in test [15]; 94.8% in test [16]; 94.5% in test [17]; 78.5% in [18]; 94.8% in test [19].

B5: K1-18 Fab (Fab, V domains shown)
VH: EVQLVQSGAEVKKPGESLKISCKGSGYSFTNYWIGWVRQMPGKGLEWMGIIYPYDSDTRYSPSFEGQVTISADKSIRTAYLHWSSLKASDTAMYYCVRPRDGSYPYDAFDIWGQGTMVTVSS
VL: EIVLTQSPGTLSLSPGERATLSCRASQSVSNNYLAWYQQKPGQAPRLLIYGASSRATGIPDRFSGSGSGTDFTLTISRLEPEDFAVYYCQHCGSSLRAFGQGTKVEIKR
Take B5: the “Inhibition of binding (%)” value in [8] worked out at 79.2%; in [9], 82.8%; in [10], 81.6%; in test [11], 82.6%; in [12] it was 43.9%; in test [13], 84.8%. Further, the “Inhibition of binding (%)” value in [14] was 81.5%; in test [15] it was 81.1%; in test [16] it was 83.5%; in test [17] it was 84.2%; in test [18] it was 62.5%; in test [19], 86.2%.

B6: K1-18 IgG (human monoclonal TSHR autoantibody with stimulating activity) (antibody, V domains shown)
VH: EVQLVQSGAEVKKPGESLKISCKGSGYSFTNYWIGWVRQMPGKGLEWMGIIYPYDSDTRYSPSFEGQVTISADKSIRTAYLHWSSLKASDTAMYYCVRPRDGSYPYDAFDIWGQGTMVTVSS
VL: EIVLTQSPGTLSLSPGERATLSCRASQSVSNNYLAWYQQKPGQAPRLLIYGASSRATGIPDRFSGSGSGTDFTLTISRLEPEDFAVYYCQHCGSSLRAFGQGTKVEIKR
notes: IgG1 kappa purified from hetero-hybridoma supernatant; also called stimulating MAb K1-18 (IgG1 kappa)
B6: the Ka in test [22] was found to be 7e+09 M⁻¹.

B7: K1-18 Fab (Fab, V domains shown)
VH: EVQLVQSGAEVKKPGESLKISCKGSGYSFTNYWIGWVRQMPGKGLEWMGIIYPYDSDTRYSPSFEGQVTISADKSIRTAYLHWSSLKASDTAMYYCVRPRDGSYPYDAFDIWGQGTMVTVSS
VL: EIVLTQSPGTLSLSPGERATLSCRASQSVSNNYLAWYQQKPGQAPRLLIYGASSRATGIPDRFSGSGSGTDFTLTISRLEPEDFAVYYCQHCGSSLRAFGQGTKVEIKR
Turning to B7, the Ka in test [21] was 1.8e+09 M⁻¹.

The values above are taken from patent US20110300138A1 (published 2011).
